Measurements as given in publication PMC9916836.

Molecular target: T1, UvrY-His6 (Escherichia coli O157:H7 (EHEC; EDL933?)) (UniProt P66798)
T1 sequence: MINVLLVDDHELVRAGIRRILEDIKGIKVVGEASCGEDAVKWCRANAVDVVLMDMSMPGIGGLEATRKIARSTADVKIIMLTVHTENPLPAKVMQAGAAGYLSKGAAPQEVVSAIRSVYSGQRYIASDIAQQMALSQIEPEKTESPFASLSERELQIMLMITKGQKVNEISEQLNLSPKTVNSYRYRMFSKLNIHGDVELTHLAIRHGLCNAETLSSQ
Assay: EMSA

## AGATTCATCTGCAGGCTCTGAAGTAAGTATACGTGTGAATATTATTGCTTGAAAAAGCGTATTGGATAATATATACAGTATATGTACTTTATGTACATTGCAACTATTTAAATAATATAATAGTTGCCTATGGGATAATTTGGTTATTTATAACCAGGTAAATGTCTAAATTAGACAAAAGGAGAAAGATCAATGGAAGCAGCAAATTTAAGTCCTTCTGGTGCAGTAATG (double strand) [PLEE2/3]
  binding: no binding

## CATTAGCCATTGGAAACTCACGTAATCATTAATTATGAATATTCCATTAAATAGTACTGTACAACAGCTTCCTTTCTACTCTATTCTTAGACGATGTAAGTTCACCATATTTTTTCTCATTGTTCAACCACCAGGATGAATAAAATTTAAAAATGTTATCCTCATATAAAATAAAACTTCTCAATGGTGCGATGCG (double strand) [PLEE4]
  binding: no binding

## GTTATCGCAGGGAGCCACACAGCGTGTGTTGGACGCGACTCAGCTTTACCTTGGTGAGATTGGTTATTCACCACTGTTAACGGCCGAAGAAGAAGTTTATTTTGCGCGTCGCGCACTGCGTGGAGATGTCGCCTCTCGCCGCCGGATGATCGAGAGTAACTTGCGTCTGGTGGTAAAA (double strand) [rpoS coding region]
  binding: no binding

## GGGTGCTACTTTACGCCTTTGCTTTAAACAAACAATCAACCGCCATCAGTATTTGCACATTTTCAGAGTTTTATATAAAAGCAATTAACTGATTTATATAGCTTATTTGACATGCATCGCAGAATTTTCTCTGCTATTTCGCATAAAGACTATCGGCAATGTCTCACAAAGCGTATGGCTTTTACTTACAACGCTCACGCCGAAAAATCCGCCTTTTATTATGGTTCAGGTATAATCGCCGCAAAGCTTTGACTGACGGAGACGACCGCTT (double strand) [PcsrC]
  binding: binds
